Data as given in patent publication US20040175378A1, “Selected antibody compositions and methods for binding to aminophospholipids” (Board of Regents, The University of Texas System, priority 2002, published 2004).

Legend:
[1] = ELISA binding to anionic phospholipids in 5 mM EDTA (Ca2+ requirement)
Procedure: The specificity of the 9D2 antibody binding was validated by using control rat IgM of irrelevant specificity (Pharmingen, San Diego, Calif.). The specificity of annexin V binding to phospholipids, which is Ca^2+-dependent, was determined by diluting the reagent in the DPBS containing 5 mM EDTA. Additional negative controls consisted of washing the plates with the binding buffer containing 0.2% of a detergent Tween 20. This treatment extracts lipids, thus removing the phospholipid that was absorbed to plastic. Neither 9D2 antibody nor annexin V bound to detergent-washed plates.

[2] = test system: orthotopic MDA-MB-435 breast cancer; assay: 3G4 and ch3G4 tumor treatment; format: in vivo, mice
Procedure: Tumors were also established using MD-MBA-435s cells and treated as described above. […] The treatment of large L540 tumors, MDA-MB-231 and MD-MBA-435s tumor cells for 60 days is shown in FIG. 8D, FIG. 8E and FIG. 8F. The antibodies caused tumor vascular injury, thrombosis and necrosis and retarded tumor growth, with no evidence of toxicity.
MD-MBA-435s lucerifase cells were obtained from Dr. Angels Sierra Jimenez, Barcelona, Spain and were grown in 10% DMEM. Mice were injected with tumor cells as described as above, and at 2 weeks post injection, the tumors were measured and the volume recorded. […] Treatment was initiated by IP injection (800 μg) at day 15 and continued with injections of 200 μg every two to three days until the final injection of 400 μg at day 35. Tumor volumes and mouse body weights were measured on injection days. Mice were sacrificed and perfused with saline for 12 minutes. The organs and tumor were removed, snap-frozen in liquid nitrogen and the tumor sectioned for immunohistochemistical analysis.

B1: 3G4: mouse IgG3 kappa monoclonal antibody binding PS and other anionic phospholipids; hybridoma ATCC PTA 4545 (antibody, V domains shown)
VH: EVQLQQSGPELEKPGASVKLSCKASGYSFTGYNMNWVKQSHGKSLEWIGHIDPYYGDTSYNQKFRGKATLTVDKSSSTAYMQLKSLTSEDSAVYYCVKGGYYGHWYFDVWGAGTTVTVSSATTTAPSVYPLVP
VL: DIQMTQSPSSLSASLGERVSLTCRASQDIGSSLNWLQQGPDGTIKRLIYATSSLDSGVPKRFSGSRSGSDYSLTISSLESEDFVDYYCLQYVSSPPTFGAGTKLELKRADAAPTVFIFGRIP
binding to anionic phospholipids in the presence of 5 mM EDTA [1]: unaffected by the presence of 5 mM EDTA | tumor growth as opposed to control ([2]; i.p. 800 μg day 15, 200 μg every two to three days, 400 μg day 35): effectively retarded tumor growth | growth retardation ([2]; orthotopic MDA-MB-435): 70%
